Measured values from the DeepSol protein solubility set.

Experiment: soluble on expression in E. coli; label from the status in PepcDB or PDB records

Sequence | soluble on expression in E. coli
MGSDKIHHHHHHSCSSKPANTAKGEKGSDKTGKDLELKLSFQEGIAPGESLNEKLDFMEKLGVVGFEPGGGGLAGRVNEIKQALNGRNIKVSAICAGFKGFILSTDPAIRKECMDTMKEIIAAAGELGSTGVIIVPAFNGQVPALPHTMETRDFLCEQFNEMGTFAAQHGTSVIFEPLNRKECFYLRQVADAASLCRDINNPGVRCMGDFWHMTWEETSDMGAFISGGEYLQHVHVASRKRRSMPGEDGDADNYINGFKGLKMIGYNNYVSFECGCQGDRNVVVPAAVKLLREQWEQA | not soluble
MGSDKIHHHHHHSDEKYPMPTSIDQNSLSAEAKAGAIKLKWTVPADSNYYYVKVTYTLPEDGKKCMRLASVNSDTMLVDNLLHRYGDINFTLQPCNRAGEASQSCSIMAQALPALKQIKTDRNPITLSAKQLYTDDQESSEGPIANLVDGRNDTYFHMSWSSPTPFPHYIVVDLGEENALSTFLFSYVCRDNNNKDNPKEMDILGSNTFDGKNYDESQTTLLASLSNLPNTKAASYESDIIKAGASYRYLWFKVKSSTSGSNWIALAELGLSKVIVKTYDPETGETTIE | not soluble
MGSDKIHHHHHHTEMEPKFTEPVNINGEDYYKALREYKKSDHPIVFGWYSEWTGTGTNMNNQLRGIPDSMDIVSLWGGAFNLTEAQKSDLKEVREKKGLRVLYCQHITDIGRSHTPASVENDFIVDGVQYNSKDEAMAAYWGWYGNYGDTSEEGQEKAIRKYARVIIDSINKYNYDGFDIDFEPNFGYSGNLSGNSDRMHIFLDELSKEFGPKSGTGRILMVDGEPQTLNKESGPLLDYYVVQAYYCRSDEGYSDALDGRFDRLLNKFGSIEDEATILSKTVWCEDFEKHKGDGGPEFTTRDGIVTYSLKGMAMYYRPGVDARIGGVGAYRFNLCRPVNDYFFMREVIQVLNPANH | not soluble
MGSDKIHHHHHHTHSVETPYGSVTFTVYGTPKPKRPAIFTYHDVGLNYKSCFQPLFRFGDMQEIIQNFVRVHVDAPGMEEGAPVFPLGYQYPSLDQLADMIPCILQYLNFSTIIGVGVGAGAYILSRYALNHPDTVEGLVLINIDPNAKGWMDWAAHKLTGLTSSIPDMILGHLFSQEELSGNSELIQKYRGIIQHAPNLENIELYWNSYNNRRDLNFERGGETTLKCPVMLVVGDQAPHEDAVVECNSKLDPTQTSFLKMADSGGQPQLTQPGKLTEAFKYFLQG | soluble
MGSDKIHHHHHHTQKPDITYMPQPPFNPPTYVCYKAPAPIKIDGKLSPGEWDAIPWTSDFVDIEGDKRPAPHFQTRAKMTYDDNGMYFAVLMEEPHVWATITEHDAVIFHDNDFEIFLNPTNDTHNYLEYEVNALGTEWDLFLTRPYRDNPQVLNNWEFTGMKSAVYVDGTLNNPKDTDKSWSVEVFIPWTSVFQMDRGKEKPEIGEQIRVNFSRVEWTTDVKDGKYVKVPIQGEDKIREYNWVWAPTGVINIHMPEYWGYVQISDKIAGEGETPFVKHPSEETKWILRNLYYRQNEFAATFGHYADNINDLKANELCPQEIANQLEIHTTPSMYEISLPAPDGTVWNIRQDGLVWPKKK | not soluble
MGSDKIHHHHHHVAASPLRGRTPHRRGPRACRRGPLPRVGAGGLRQMTATEAYLQKGWLRFAAEESIRDWAAHAQRCAETATADPAHAKWLDCEGTWFIGVDALPNDPDGRLPSGPPLEGAALDFIRAHFGEIPALHRAQLSVIYPGYPRPRRGESDAAFGYRCKRDGAHVDGIKIYGTARRRRVEEPHAWVLGLPLNKTSKNAAPLVVWEGSHLIMREAFRLAFEGIALEDWAHVDITDIYTAARREVFETCKRVEVHANPGEAYLMHRLCLHGVAPWADGASATDGAGRMIAYFRPEMPNWQAHWLSDL | not soluble
MGSDKIHHHHHHVAETTTEQTIQKASSAIHYNAFSHNDYWRERPLLDALSFRFNCVEADLWLIDDELYVSHDRPEPNPAITFENLYLKPLVARIQANGGKVYPGSDRPFYLMVDCKAQGEEMYKLLKKQMEPYKEYFCSVDNGEYKEGAVLFFLSGDRPKNSLPKENSRFTFLDGQIKDLGQGIPASLAPVISDNYSDFFTWKGEGEMPADQLQKMREIIRKVHDEGKLFRWWGAPDTEQFKRFFIKEGVDLVGADDLNGLYNVLNER | not soluble
MGSDKIHHHHHHVGTVNVRSGRMRYFTNRDAPLDVEHVMAPAAFPPGFPAVRLEAESYWDGGIYSNTPLEAVLDDRPRRDSVIFSVQLWPSSGPEPESILQVMSRQRDIQYSSRAESHLDRQKQIHRLRHVIRELGQHLPEEQRNAPAVRELLDWGCGTTMQVLELDAPAFDNDDLNRDIDFSSAGIERRWRAGYEDTARLLKLAPWRETLDPMEGISVFRMASAESRK | not soluble
MGSDKIHHHHHHVIEVIRQRVLPHYGLEGNAAKVSPLGNGHINDTFLVTWDEGSMVLQRLNTSVFQAPWTLVENAELISRHLGEKEGKDYELKVVSPKTTAEGDLGIDLGEAGFWRAIRYLKHSNSIDVVGSEAQAEQAARAFGHFARALCDFDATRIGDVIPKFHFLPGRLAALEQAAADNKAGRLDTCREWVDFALCQRGLLDELAALEPKLPLRVCHNDTKINNMLFDKRDDSAMAIIDLDTCMKGHLMYDFGDMVRTFTSPEAEDSTALDKVRVRPEIFAAICRGYLAELGDVLEAAERESLWLGARIMCLMIGVRFLTDYLNGDLYFHVHREGHNLDRAANQFTLYQSLLTQADRLKPCIF | not soluble
MGSDKIHHHHHHVIKLIRQFVLPHFGIDATEAKISALGNGHINETLLVRWPTGELVLQRINTQVFKTPQALVSNADKISHHLCAKALQQQYGLKVVSPCLTKEGELALDLGEQGFWRAISYLPHSHSIEVVKSEKEAEMAAKAFGHFASALSDFDATQLEDVIPQFHHLPGRMALLKQAVELDSQHRLAFCRHWVDYAVSQQALLDELAEISPKLPLRICHNDTKINNMLFDKRDMSSMAIIDLDTCMKGHLMYDFGDMVRTFCSPEAEDSTALENVKVRQSIFAAICRGYLSELGNVLTEVEKRSLWLGARVICLMIGVRFLTDYLNGDVYFHIHREGHNLDRAANQFTLYQSLLDQDVALKACFELNPLSAVEHS | not soluble
MGSDKIHHHHHHVNFRDLGGYPVGDGRRTRWGRLFRSDSLGALTEEDLALVAALDLYRVVDFRLPHERELHPNRLPVGAGPKVTEIGFWPDGVPEMLKALRELRIDAAGIERAVTGHYRRYAVHHRAEYRRMLEAVEEAAGRPTLIHCVSGKDRTGFGAAVILMALGVPRTVIVEDYLLTNDCRRDIGHLMPSGTTESVAEAFTAARPAYIEAAFESIDTAFGGIDDYLAHGLGFGEQRLQRLRECLTEPATGSASLLSPRRAGNP | not soluble
MGSDKIHHHHHHVTSGQDKPWPPVSMGMARLTTMAFHGENMVPPAIELLKRSEADPTDSAALLDLSAIHFLLGHEEAGLAYQERALAQNQVYRDHSETASEDGVRLLAFAAPGNLMSNVPIQFLIENSDIRLDVLYVVPGLDLPERVPAHDMAMVIAGESEPNREVLERIAAFADLWPCPPVLNDPRKVLQLSRDGVSSLLSGVPGIRIPATTRVDPESLARLGRGEIALTDLLPDGSFPVIARPLDSHAGKGLAKLDDPSTIALYLAAQPAEGYYLSSFVDYRGAGGMFRKYRIALIDGKPFVCHMAVSAHWMIHYLNADMRESAEKRAEEAQAFATFDEDFAARHKDAFATMAERIGLDYFAMDCAETPDGDLLVFEADTAMIVHAMDPPDIFPYKAPQMRRIFKAFQDMLRRIKQDKQD | not soluble
MGSDKIHHHHHHVVNQAQKMNFLTHLHLADISKTHLAANVAGNYIQAPIAQAPVEFRQALWLNQEINTLCASHELTIELMEAFPAPLRSIAAELMAVSFDYYLAYYWEEYHHQPLNEFSHKAYDALENFAAQGIDQYHPEALIKLLPTIRSQDWLGSYATENGLQQALAQVAKPHPQAALFKDAHKVVNKMQIEIETTFRTFYPQLMAYSRIWSRKTPAEYLP | not soluble
MGSDKIHHHHHHYAVQPKDDKKENEALQTSTEEHLPLLTINGTNASSSFIVNSEALLGKEITITAPNGFTVTPTVIAANSGKQKVKVTLNSTKRLTEGKIILRSGDVRSYLKVKGYGTALPVKDIAASPAYKKGNDKEFTKAFTPNSKGYTIEFKIKTDDSEKSFYPYFVNEKGYGFKAYITSNEIGLFNAYKKEITNPATNGKAGGKGKFYNNDGQAHIYRFAITPDNRAFIYRDGIPVDSVRIIDYAPQPNFAEKVGKPVENLLKNPNFEGEFDINPETKLVSRVEGWDVVISDRWNSEQQILPEEIDNNQDLDNHVFEIRPYKWAAGWSDGILMQVVDVVPNENYTLSALLKGGIAKKEGKLTGKMIIEEVQDPEKKVITEIASDNWETYSMDYTTSAECNQIRVSFTVGRGGWGNDIGAVRVDNAKLTGTSRTYSPKFGFIDNTADVEYFTIDESGAYAPAQPEITINIED | not soluble
MGSDKIHHHHHHYGLGRSWAPGLSQLDGVPRLGGTLDAPLVLNDASELSATPIHIHTRPAAHGDALIEAFRAELTAAQAEDRPVCVSAARHSMGGQSLPRGGHAITVDNAWIEPDTANQTYRVNGGARWRDVIAALDPIGFSPAVMQSNHDFGVAATFSVNAHGWPVPYGPMGATVREIRMVLPGGDLVTASRTENTDLFNLAVGGYGLAGLIVDMEVDMVPNQRLAPSFTPMPAADFPAAFRAAVDDPTMPMGYGRLNVTRESLFEEALLVTYSPTPDQSDIPPAIESGWLSYAASYLYRGQVGREGMKDWRWWVEADLGPRLAGESTRNSLMNEPVITLDDRDPTRVDILHEYFVPFDAFDGFLEACRDVIPDAFVEFLNVTLRFVDSDTDSLLPHSPTPRIAAVMSFTQEKTTRAEADHARMTRALIDRIVAIGGTYYLPYRPHATLDQFTAAYPNAPEFAAAKRALDPTLTLRNNLWDSYLADL | not soluble
MGSHHHHHHDITSLYKKAGSAAAVLEENLYFQGSFTMLHEIPKSEILKELKRIGAKRVLIQSPEGLRREAEELAGFLEENNIEVFLHGEINYGACDPADREAKLVGCDALIHLGHSYMKLPLEVPTIFVPAFARVSVVEALKENIGEIKKLGRKIIVTTTAQHIHQLKEAKEFLESEGFEVSIGRGDSRISWPGQVLGCNYSVAKVRGEGILFIGSGIFHPLGLAVATRKKVLAIDPYTKAFSWIDPERFIRKRWAQIAKAMDAKKFGVIVSIKKGQLRLAEAKRIVKLLKKHGREARLIVMNDVNYHKLEGFPFEAYVVVACPRVPLDDYGAWRKPVLTPKEVEILLGLREEYEFDEILGGPRESDEPFGISIHSTR | soluble
MGSHHHHHHSQDPMMSRLKTAVYDYLNDVDITECTEMDLLCQLSNCCDFINETYAKNYDTLYDIMERDILSYNIVNIKNTLTFALRDASPSVKLATLTLLASVIKKLNKIQHTDAAMFSEVIDGIVAEEQQVIGFIQKKCKYNTT | soluble
MGSIEEVLLEERLIGYLDPGAEKVLARINRPSKIVSTSSCTGRITLIEGEAHWLRNGARVAYKTHHPISRSEVERVLRRGFTNLWLKVTGPILHLRVEGWQCAKSLLEAARRNGFKHSGVISIAEDSRLVIEIMSSQSMSVPLVMEGARIVGDDALDMLIEKANTILVESRIGLDTFSREVEELVECFAAALEHHHHHH | soluble
MGSSHHHHHHGGTGENLYFQGGSGPSSVAYVLGTESCGKTDLVHQLEYLTLGLVRTVPTACTPTTGQEVTKLNICSPAGKGKVTVEVRELGGSLVNTWESFIESRKARDGGSGDTSFLLIYVVDGVAPHQLPLASTMFRYLTQGRHAPCAGWPTLITVQKCASVNAITAEEVRSFFLDEVEAPANVDVVEVDSWNGIGTGDVLKGIEAVFGGLQ | not soluble
